Measured values as given in the supplement of paper PMC10567573.

B1: MNAT1 (parent)
chain: LEEALYEYQPLQIETYGPHVPELE
B2: FBXO39 (parent)
chain: PSRVHASEVESAVWYVKKFGRYLE

Variants of: B1
Experiment: protein stability index of a GFP-peptide fusion (GPS, HEK-293T) (PSI 1-6); higher = more stable
Conditions: c terminus: a fixed tail appended
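Also: lentivirally expressed fusions sorted by FACS into six bins by GFP to DsRed ratio, PSI derived from sequencing read proportions per bin multiplied by bin number.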

Protein stability index: each site, then its substitutions
I13: A 5.37 | P 5.08 | Q 5.01 | K 4.9 | R 4.76
Y6: E 2.74 | N 3.7 | I 2.58 | A 2.3 | S 2.41 | L 3.43 | D 4.36 | C 2.61 | Q 2.81 | G 3.43 | R 2.27 | W 2.39 | F 2.8 | V 3.33
P18: T 3.02 | I 2.04 | W 1.18 | H 2.81 | G 2.96 | S 2.6 | D 2.8 | A 2.74 | V 2.39 | M 2.01 | Y 2.97 | F 2.17 | N 3.31 | R 3.78 | K 4.11
E7: D 3.92 | A 2.19 | L 2.25 | W 2.1 | T 2.68 | K 1.87 | G 3.53 | F 1.87 | M 2.19 | H 2.11 | N 2.73 | I 2.44 | C 1.92 | Y 1.98
E22: L 2.35 | T 2.56 | C 3.71 | H 2.2 | P 2.28 | A 2.47 | Y 2.49 | Q 2.54 | I 1.84 | R 2.35
L23: C 3.16 | N 3.34 | T 2.6 | Q 2.98 | E 4.12 | R 3.99 | V 2.81 | M 3.2 | A 3.56 | P 3.19 | W 2.84 | I 2.53 | D 4.02 | G 3.55
L11: I 2.56 | V 2.04 | N 4.71 | H 4.61 | Q 4.28 | T 3.99 | W 4.27 | S 4.11 | K 4.26
Q12: F 2.12 | R 2.27 | K 1.84 | P 5.02 | L 2.67 | M 2.35 | H 2.5
E14: Y 1.87 | S 2.25 | Q 2.19 | W 1.6 | D 2.68 | V 1.82 | T 2.32 | N 2.61 | K 1.75 | H 1.8 | R 1.93 | L 2.01 | A 2.3
Y8: G 5.41 | R 5.44 | Q 5.5 | N 5.74 | H 4.27 | I 4.92 | T 5.38 | P 5.25 | V 4.98
A4: M 3.72 | F 3.1 | Q 4.89 | D 4.84 | G 4.4 | Y 3.51
Q9: F 2.13 | K 2.68 | N 2.59 | L 2.7 | P 5.02 | Y 2.43 | W 2.79 | T 4.38 | V 3.84 | S 2.94 | A 2.86
V20: A 3.26 | W 2.17 | S 2.57 | N 3.23 | Q 2.92 | G 3.45 | Y 2.78 | C 2.15 | L 2.49 | K 3.23 | D 2.36
H19: P 2.01 | E 3.27 | C 3.3 | M 2.09 | R 3.99 | W 1.5 | V 2.21 | G 2.26 | I 1.57 | F 2.11
L5: R 4.32 | Q 5.38 | C 4.71 | V 4.64 | S 4.59 | I 4.87 | W 3.89 | F 4.33 | N 4.81 | M 4.64 | K 5.06 | D 5.12
Y16: C 3.84 | L 4.15 | I 3.61 | V 3.19 | M 3.79 | E 4.13 | T 4.09 | P 4.94
E24: F 1.91 | D 3.39 | S 2.54 | K 2.53 | L 2.19 | T 2.67 | I 1.88 | G 2.03 | C 1.76 | R 1.95
E3: F 3.39 | L 2 | S 3.63 | D 3.19 | I 2.13 | A 2.43 | H 3.16 | C 2.42 | R 2.79 | Q 3 | N 3.67
P10: G 4.24 | W 2.63 | K 4.53 | L 3.32 | C 3.27 | N 4.75 | Q 4.43 | A 3.89 | D 4.33 | F 2.91 | E 4.6 | T 4.1
E2: W 2.34 | F 1.71 | C 3.03 | M 2.71 | T 2.2 | K 2.47 | P 3.7 | G 2.24 | Y 1.71
T15: I 1.61 | V 1.7 | L 1.82 | K 4.14 | M 2.32 | F 1.75 | P 4.55 | Y 2.01 | W 2.2 | R 4.41 | H 3.91
G17: W 1.74 | Y 1.59 | K 2.88 | L 1.85 | S 2.27 | T 2.5 | E 3.14
P21: E 3.67 | W 1.75 | G 1.97 | A 2.92 | K 3.01 | D 3.3 | C 3.78 | M 2.53 | F 1.44 | Y 1.75
L1: A 5.28 | E 5.1 | I 3.45 | S 5.15 | Y 4.45 | N 4.72 | G 5.15 | P 4.88 | Q 5.08 | D 4.8 | T 5.14

Variants of: B2
Experiment: as above
Conditions: c terminus: a fixed tail appended

Protein stability index of substitutions, site by site:
P1: A 2.45 | C 1.82 | D 2.08 | E 1.84 | F 1.66 | G 2.83 | H 2.06 | I 1.83 | K 2.21 | L 2.13 | M 1.87 | N 1.72 | Q 3.14 | R 1.71 | S 1.52 | T 2.01 | V 1.7 | W 2.5 | Y 1.63
S2: A 1.71 | D 2.19 | E 2.29 | F 1.64 | G 1.94 | H 1.76 | I 2.33 | K 2.67 | L 1.63 | M 2.08 | N 2.51 | P 2.05 | Q 2.18 | R 1.82 | T 2.31 | V 1.46 | W 1.89 | Y 2.48
R3: A 2.04 | C 1.88 | D 2.9 | E 2.04 | F 1.49 | G 2.29 | H 1.98 | I 2.18 | K 1.83 | L 1.72 | M 2.54 | N 2.19 | P 2.49 | Q 2.46 | S 2.1 | T 3.32 | V 2.36 | W 2.4 | Y 1.58
V4: A 2.29 | C 1.49 | D 2.52 | E 2.52 | F 1.54 | G 2.19 | H 2.25 | I 2.39 | K 1.63 | L 2.22 | M 1.97 | N 2.13 | P 1.92 | Q 2.21 | R 1.8 | S 1.58 | T 1.65 | W 2.06 | Y 1.34
H5: A 2.11 | C 1.61 | D 2.52 | E 3.31 | F 2.02 | G 2.26 | I 1.39 | K 1.4 | L 2.49 | M 1.86
